Results from paper PMC5441561 (Science (New York, N.Y.), 2017).
Like-named read-outs stand apart in the source and are kept apart here.

B1: KaiA_(cryst) (domain or fragment, Thermosynechococcus elongatus)
chain: SNVDPQHRLSQKLKERLGYLGVYYKRDTAFFFRRMSPADKRKLLDELRSIYRTIVLEYFNTDAKVNERIDEFVSKAFFADISVSQVLEIHVELMDTFSKQLKLEGRSEDILLDYRLTLIDVIAHLSEMYRRSIPREV
B2: KaiC_(S431E) (enzyme, Thermosynechococcus elongatus, UniProt Q79V60 1-518, looked up)
chain: MTNLPEHQSSPTEQSSAEVKKIPTMIEGFDDISHGGLPQGRTTLVSGTSGTGKTLFAVQFLYNGITIFNEPGIFVTFEESPQDIIKNALSFGWNLQSLIDQGKLFILDASPDPDGQEVAGDFDLSALIERIQYAIRKYKATRVSIDSVTAVFQQYDAASVVRREIFRLAFRLKQLGVTTIMTTERVDEYGPVARFGVEEFVSDNVVILRNVLEGERRRRTVEILKLRGTTHMKGEYPFTINNGINIFPLGAMRLTQRSSNVRVSSGVKTLDEMCGGGFFKDSIILATGATGTGKTLLVSKFLETGCQQGERALLFAYEESRAQLSRNASSWGIDFEELERRGLLRIICAYPESAGLEDHLQIIKSEIADFKPSRVAIDSLSALARGVSNNAFRQFVIGVTGFAKQEEITGFFTNTTDQFMGSNSITESHIETITDTILLLQYVEIRGEMSRAINVFKMRGSWHDKGIREYVITEKGAEIRDSFRNFEGIISGTPTRISVDEKTELARIAKGMQDLESE

Key:
[1] = target: the molecule itself; assay: crystal structure
[2] = target: the molecule itself; assay: crystal structure; remark: listed apart in the source

Protein	stoichiometry N [1]	stoichiometry N [2]
B1	2	
B2		6
